Experimental data taken from PMC3839042 (Biochemistry, 2013).
Where two headings read alike, the source gives them in different places.

B1: human S100A2 (natural protein)
chain: not shown
B2: human S100P (natural protein, UniProt P25815 1-95, looked up)
chain: MTELETAMGMIIDVFSRYSGSEGSTQTLTKGELKVLMEKELPGFLQSGKDKDAVDKLLKDLDANGDAQVDFSEFIVFVAAITSACHKYFEKAGLK
B3: human S100B (natural protein, UniProt P04271 1-92, looked up)
chain: MSELEKAMVALIDVFHQYSGREGDKHKLKKSELKELINNELSHFLEEIKEQEVVDKVMETLDNDGDGECDFQEFMAFVAMVTTACHEFFEHE

How the values were obtained:
human S100B [1] = target: B3; assay: other fluorescence titration
human S100A2 [2] = target: B1; assay: other fluorescence titration
human S100P [3] = target: B2; assay: other fluorescence titration
human S100B [4] = target: B3; assay: ITC
human S100A2 [5] = target: B1; assay: ITC
human S100P [6] = target: B2; assay: ITC
[7] = target: T1, TRTK12 wild-type peptide (Ac-…-NH2) (N-terminus acetylated; C-terminus amidated); assay: stopped-flow fluorescence
[8] = target: T1, TRTK12 wild-type peptide (Ac-…-NH2); assay: other fluorescence titration
[9] = target: T1, TRTK12 wild-type peptide (Ac-…-NH2); assay: ITC
[10] = target: T1, TRTK12 wild-type peptide (Ac-…-NH2); assay: stopped-flow fluorescence; remark: listed apart in the source
[11] = target: T1, TRTK12 wild-type peptide (Ac-…-NH2); assay: other fluorescence titration; remark: listed apart in the source
[12] = target: T1, TRTK12 wild-type peptide (Ac-…-NH2); assay: ITC; remark: listed apart in the source
[13] = target: T1, TRTK12 wild-type peptide (Ac-…-NH2); assay: stopped-flow fluorescence; remark: listed apart in the source
[14] = target: T1, TRTK12 wild-type peptide (Ac-…-NH2); assay: stopped-flow fluorescence; remark: listed apart in the source
[15] = target: T1, TRTK12 wild-type peptide (Ac-…-NH2); assay: other fluorescence titration; remark: listed apart in the source
[16] = target: T1, TRTK12 wild-type peptide (Ac-…-NH2); assay: ITC; remark: listed apart in the source

human S100A2, sequence (P29034 whole entry): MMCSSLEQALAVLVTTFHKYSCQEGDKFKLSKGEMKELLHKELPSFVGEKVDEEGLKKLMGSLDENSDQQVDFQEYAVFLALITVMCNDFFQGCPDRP

Kd (human S100B [1]) | Kd (human S100A2 [2]) | Kd (human S100P [3]) | Kd (human S100B [4]) | Kd (human S100A2 [5]) | Kd (human S100P [6]) | further results | Binder
0.2 ± 0.1 µM | 16 ± 1 µM | 7 ± 3 µM | 2.9 ± 1 µM | 15.2 ± 1 µM | 2 ± 0.5 µM | – | Ac-ARTKIDWNKILS-NH2 [TRTKM1 (Ac-ARTKIDWNKILS-NH2)]
2 ± 1 µM | 17 ± 4 µM | 30 ± 10 µM | 1.7 ± 0.1 µM | 45 ± 2 µM | 7.1 ± 0.5 µM | – | Ac-TRTKIDWNAILS-NH2 [TRTKM9 (Ac-TRTKIDWNAILS-NH2)]
– | – | – | – | – | – | koff [7]: ≥ 250 s⁻¹; Kd [8]: 43 ± 9 µM; Kd [9]: 48 ± 3 µM | B1
– | – | – | – | – | – | koff [10]: 286 s⁻¹; kon [10]: 5.6e+07 M⁻¹ s⁻¹; Kd [11]: 11 ± 1 µM; Kd [12]: 5.1 ± 0.3 µM | B2
10 ± 3 µM | – | – | 3.8 ± 1 µM | 504 ± 9.7 µM | 31.7 ± 0.5 µM | – | Ac-TRTKIDWNKIAS-NH2 [TRTKM11 (Ac-TRTKIDWNKIAS-NH2)]
– | – | – | – | – | – | koff [13]: 86 s⁻¹; koff [14]: 53 s⁻¹; kon [14]: 3.1e+07 M⁻¹ s⁻¹; Kd [15]: 3 ± 1 µM; Kd [16]: 1.7 ± 0.1 µM | B3
– | – | – | – | – | 43.1 ± 3.9 µM | – | Ac-TRTKIDWNKALS-NH2 [TRTKM10 (Ac-TRTKIDWNKALS-NH2)]
0.6 ± 0.6 µM | – | 100 ± 23 µM | 1.2 ± 0.4 µM | 131 ± 6.1 µM | 56.2 ± 4 µM | – | Ac-TRTKADWNKILS-NH2 [TRTKM5 (Ac-TRTKADWNKILS-NH2)]
5 ± 1 µM | 23 ± 3 µM | – | 1.3 ± 0.6 µM | 21.5 ± 4 µM | 7.4 ± 1 µM | – | Ac-TRTKIAWNKILS-NH2 [TRTKM6 (Ac-TRTKIAWNKILS-NH2)]
